In this experiment the target is mitochondrial ribosome (S. cerevisiae (endogenous in W303)). Put plainly: co-sedimentation.

B1: Cbp3 (natural protein)
chain: ETAQDSPELLAKSSHLNSKPLDVSNKAPVKTAQNKIPLAHSKYESSKYELPKWKEALGELVIRAFHLDMDRVRAGPVAGSYYYKICKEQGLQYEDEPLSETAKYFYEDLKLPRTFSQWFQITVLHEWILFVRMRAMPFKYGRNYQQKLVDRTFSDIELRLFEEMKVNSGRIADQYLKDFNTQLRGAIFAYDEGFATDDGTLATAVWRNLFGGRKNIDMVHLESVVRYIYSQLYVLSRLSDREFATGKFKFVPPGVKVEKLTPKQEEELKAKTIAKYEALDKDPKTLPSERSRLSYTN
In turn, B1 returned a percent bound to the ribosome of 20%.

B2: Cbp6 (natural protein)
chain: MSSSQVVRDSAKKLVNLLEKYPKDRIHHLVSFRDVQIARFRRVAGLPNVDDKGKSIKEKKPSLDEIKSIINRTSGPLGLNKEMLTKIQNKMVDEKFTEESINEQIRALSTIMNNKFRNYYDIGDKLYKPAGNPQYYQRLINAVDGKKKESLFTAMRTVLFGK
In turn, B2 displayed a percent bound to the ribosome of 20%.

The values above are taken from paper PMC3461508.
